# According to US9096835B2, “DNA polymerase” (Medical Research Council, priority 2003, dated 2015):
# B1: 3A10: third round clone, abasic site bypass; SEQ ID NO: 86 (protein)
# chain: MAMLPLFEPKGRVLLVDGHHLAYRTFFALKGLTTSRGEPVQVVYGFAKSLLKALKEDGYKAVFVVFDAKAPSFRHKAYEAYRAGRAPTPQDFPRQLALIKELVDLLGFTRLEVPGYEADDVLATLAKKAEKEGYEVRILTADRGLYQLVSDRVAVLHPEGHLITPEWLWEKYGLRPEQWVDFRALVGDPSDNLPGVKGIGEKTALKLLKEWGSLENLLKNLDRVKPENVREKIKAHLEDLRLSLELSRVRTDLPLEVDLAQGREPDREGLRAFLERLEFGSLLHEFGLLESPKALEEAPWPPPEGAFVGFVLSRKEPMWADLLALAAARGGRVHQAPEPYKALRDLKEARGLLAKDLSVLALREGLGLPPGDDPMLLAYLLDPSNTTPEGVARRYGGEWTEEAGERAALSERLFANLWGRLEGEERLLWLYREVERPLSAVLAHMETTGVRLDVAYLRALSLEVAEEIARLEAEVFRLAGRPFNLNSRDQLERVLFDELGLPAIGKTEKTGKRSTSAAVLEALREAHPIVEKILQYRELTKLKSTYIDPLPDLIHPRTGRLHTRFNQTATATGRLSSSDPNLQNIPVRTPLGQRIRRAFIAEEGWLLVVLDYSQMELRVLAHLSGDENLIRVFQEGKDIHTQTASWMFGVPPEAVDPLMRRAAKTVNFGVLYGMSAHRLSQELSIPYEEAVAFIERYFQSFPKVRAWIEKTLEEGRRRGYVETLFGRRRYVPDLNARMKSVRGAAERMAFNMPVQGTAADLMKLAMVKLFPRLREMGARMLLQVHDELLLEAPQARAEEVAALAKEAMEKAYPLAVPLEVEVGIGEDWLSAKE
# modifications: Mutant Taq polymerase
# B2: 3D1: third round clone, four mismatch extension; SEQ ID NO: 98 (protein)
# chain: MAMLPLFEPKGRVLLVDGHHLAYRTFFALKGPTTSRGEPVQVVYGFAKSLLKALKEDGYKAVFVVFDAKAPSFRHKAYEAYRAGRAPTPEDFPRQLALIKELVDLLGFTRLEVPGYEADDVLATLAKKAEKEGYEVRILTADRGLYQLVSDRVAVLHPEGHLITPEWLWEKYGLRPEQWVDFRALVGDPSDNLPGVKGIGEKTALKLLKEWGSLENLLKNLDRVKPENVREKIKAHLEDLRLSLELSRVRTDLPLEVDLAQRREPDREGLRAFLERLEFGSLFHEFGLLESPKALEEAPWPPPEGAFVGFVLSRKEPMWADLLALAAARGGRVHRAPEPYKALRDLKEARGLLAKDLSVLALREGLGLPPGDDPMLLAYLLDPSNTTPEGVARRYGGEWTEEAGERAALSERLFANLWGRLEGEERLLWLYREVERPLSAVLAHMEATGVRLDVAYLRALSLEVAEEIARLEAEVFRLAGHPFNLNSRDQLEMVLFDELRLPALGKTQKTGKRSTSAAVLEALREAHPIVEKILQYRELTKLKSTYIDPLSDLIHPRTGRLHTRFNQTATATGRLSSSDPNLQNIPVRTPLGQRIRRAFIAEEGWLLVVLDYSQIELRVLAHLSGDENLIRVFQEGRDIHTETASWMFGVPREAVDPLMRRAAKTINFGVLYGMSAHRLSQELAIPYEEAQAFIERYFQSFPKVRAWIEKTLEEGRRRGYVETLFGRRRYVPDLEARVKSVREAAERMAFNMPVQGTAADLMKLAMVKLFPRLGETGARMLLQVHDELVLEAPKERAEAVARLAKEAMEGVYPLAVPLEVEVGIGEDWLSAKG
# modifications: Mutant Taq polymerase
# Test system: primers with an abasic site seven bases from their 3′ end
# Assay: Abasic site bypass in PCR
# Type: biochemical
# Conditions: 176 bp product, 20 cycles of PCR
# Experimental: FIG. 10. A list of polymerases selected to extend four mismatches were assayed for their ability to extend abasic sites in PCR. Primers with an abasic site seven bases from their 3′ end were designed. Such primers will prevent exponential amplification of the target sequence, restricting it to […] amplification, unless the abasic site is bypassed. […] (A) Screen which identified clone A10. (B) A further 4 polymerases that display good abasic site bypass. Lane M: markers, Hae III digest of Φ X174.
# A list of polymerases selected to extend four mismatches were assayed for their ability to extend abasic sites in PCR (FIG. 10).
row,Molecule,amplification product in PCR with abasic site primers
1,B1,produced an amplification product
2,B2,produced an amplification product
